# Experimental data taken from the DeepSol protein solubility set.
# Test: soluble on expression in E. coli; label from the status in PepcDB or PDB records
row,Sequence,soluble on expression in E. coli
1,MKDFWTWERLSFHMVLAYNDDRSFLINTGMPLDLTLRNQEMKKFAGDRAIFRSEDSIEMLRKAGFTPDDIDYVALTPVQDYTIGRLNEFRKSKIFIFRDGWIKDIAAPAYAYFHNRDLFIPKNIFDFVYGEGWKNIIFYDGETELVPGIRAIPVGCHHRSSVAFAINAKDGTYVFTDASFKAENVRNRIPIGIAENIYECLSAYEKIEKIGKLLPAYDPAIDDLYIKLEHHHHHH,soluble
2,MKDILGKTFECSCGKTHEVPDIEILETSIREAPDVFSDAFFIADLNTASLVDLPGKRSFVFNERRPLATMENV,not soluble
3,MKDNEQKAGSVADQKNKIRERYKGVSIDELDVIPALPQEDIFAVENEQRVAVYARVSTDDPRQTSSYELQKNHYHDVISKSPNWKLVQIYADEGISGTSLQHRDQFKLMIEDCKKGEIDLIVTKSVSRFARNVVDCIGYVRELLALPHPVGVFFETERLNTFDPKSEMVLSFMATLAQEESHTKSEIMNASIEMRFRRGIFLTPTLLGYDHDEDGNLVVNEGEAKIVRLIFMMYLNGCTCQEIADTMTELGCETKKGNTVWSPGSILQILQNERHCGDVLARKTYTPNYLNHKSKKNMQNRPQYRKRNHHEAIISRDDFIAVQRLISNAKYGNKGILPELKVISNGVLKGFVSINPRWAGFKENDYISASLSVYDQMEQLSPSASSVEVQSGDFDLRGYEIARSQFFDGTDRITVTFSLNDIKFSTAAVRKLNSTLVELLLHPNKHLFAVRTASQAHRNAMQWAKKRGELSVPRAVSGTAFMPTVYALLGWNTDCRYRITGIRRGNGNDAVLLFNLEETEIFIPSDVIDEQQTSDARTDVKPLEHHHHHH,soluble
4,MKDNRITVTDIPNTNLKKITLKNDFLEVVLLNYGARLHQLLMPNKNNHWENILLSYDSYQDVLKDQSFFGATVGPVAGRIRNGHWQNGILEQNSDGHHIHGGSKGWSFQYWTVEPFEKKDIIGVAFHLTDTISGYPGPIEATITYQLEDNHLRMISTGRSKQETLFNPTNHAYFNLSGDGKLDILSHLLSLNCQGMLELDDNKLPTGRILPASELSIRFNELTPIETILQRYPTGLDDVFSLVGSDLRQPQLCLQEPTSGRKMTIATTNQSMVLFSTTGFEAPFSINGQAMHSNYGLAIEPQEYPDIVHHPQWGSILLPANKKQTYQTVYQFNLL,not soluble
5,MKDNRYSPDWPQLALQKKQAVGWVCERCGVQCLKPGEGKGLLKEERYRLRMAVHHCDYDPSNNSPSNLMALCSPCHLHYHQRQRGNVTPGQLSLGFVYRSCLVCAQQLEHHHHHH,not soluble
6,MKDSPFYQHYDLDLKDKPLGEGSFSICRKCVHKKSNQAFAVKIISKRMEANTQKEITALKLCEGHPNIVKLHEVFHDQLHTFLVMELLNGGELFERIKKKKHFSETEASYIMRKLVSAVSHMHDVGVVHRDLKPENLLFTDENDNLEIKIIDFGFARLKPPDNQPLKTPCFTLHYAAPELLNQNGYDESCDLWSLGVILYTMLSGQVPFQSHDRSLTCTSAVEIMKKIKKGDFSFEGEAWKNVSQEAKDLIQGLLTVDPNKRLKMSGLRYNEWLQDGSQLSSNPLMTPDILGSSGAAVHTCVKATFHAFNKYKREGFCLQNVDKA,soluble
7,MKDVTPARADYPWDGERDVIVIGSGCAGLSAALLAAKKSLDVVLCEKSSQVGGTTASAGGVMWIPNSREARAAGVDDSSEQVRVYLRALMGAYYRADLVDPYLKSAPLAAQAIQEDTQVRLKLMPAMSDYHASLPGGKAGGRSLEPERFDGRRLGADFELVRAPIKRLMLLGGLYIDKRRIDEFLNPFGSFRNFIGVIRTLARYAIDRTRFSRGTDIGAGNAFVASALLSLRERGVPIWLNSPMVSLVRNPQGGVAGVAICRDGKLQRIRARKGVILAAGGFPRNAALLEELAGGFPHDQSVGYEGNVGDTLQAARQAGAAIDADLASPCWWTPTSRNKEADGSMSTVLYGYLDRSRPGMIAVNAAGKRFVNDSDSYHDIVYAMFKDGVTPDSRFYLICDRRFVWKRGLGNLIKPYCLSLGRYVRSGYISTGRSIRELAAAIGIDPDALEVTVTRHNGFCETGVDLDFGKGGNPYNRMFGDPRVKPNPNLLAIRHAPFFALRIYPGTLGTILGLKATADAQVVGQDGEAIPGLYACGNDMSSVFRGFYPGAGATLGPGLVFAYRAIEHLARSSGGSAAQSALEHHHHHH,not soluble
8,MKEESRAKTGRKPKSDPADYKYSFRLNAGENMRFEKLVTESEAKDKTRFIKKAIFGGTIKVVKIDKATMDYYIRLTEFHRQFQTIGNNYNQVVRAIRSNFGEKRAMSLLYKLEKMTLELMLLTKKVIALTEEYQKKWLQK,not soluble
9,MKEIWLLAESESWDEAKEMLKDAIEIGFDGALVRRDFLERAEKLGRMKIVPIEDAVVKISSAEDQERALQREVVVLKFEDWKVIPLENIVAMKKSGKVIAAVDTIEDAKLALTTLERGADGIAVSGDRETLRKFYEVVKEEGERVELVRARVKEIRPLGVGERVCIDTVTLMTPGEGMLVGNQASFMFLVASESEESEYVASRPFRVNAGSVNAYLKVGDKTRYLAELKAGDEVEVVKFDGAVRKSYVGRVKIERRPLILIRAEVDGVEGSVILQNAETIKLVAPDGKHVSVAELKPGDEILVWLGKKARHFGVEVDEFIVER,not soluble
10,MKEKISKKEYNALIRKTGEKHFDGEKEEYGDGTVGLWTYELRKYKLKPPVKVKYVTQEEFGEFKDATNQRLTKIENALVAQGEQIRAQGEQLSQLIKVVLLQGEQIKSQGEQIKSLEHHHHHH,not soluble
11,MKEKVSMVSLGCPKNLVDAEVMLGCLAKDQYEITTDEHEADIIIVNTCSFIGDAKKESIDTILDLADRKHDGRCKLLVVTGCLPQRYQEELATELPEVDIFVGTADYPRIAEIIAEKRGVAEQLRYISDPNYIFDESLPRLKSSPAYTAYLKIAEGCSNCCSYCVIPSLRGALRSRPLDNLLMEARTLVATGTREINLIAQDITAWGRDLPGSPTLEELVRELAKIVGLRWIRLLYAYPDGITDGLIEIIKTEPKVCKYLDIPIQHISDPVLKRMNRRSTEPQIRALIAKIRAEIPEIALRTSLIVGFPGETEEDFRTLLHYVEETQFDRLGVFCYSREEGTPAAGMEDQVSERVKRDRYKKLMKVQARLSFKRNRRLIDTEEEVIVEGYSDETDLLLKGRSSRQAPDIDGQVYITAGNANVGDIVRLRITDSSDYDLIGEIVEELEHHHHHH,soluble
12,MKERILQEIKTRVNRKSWELWFSSFDVKSIEGNKVVFSVGNLFIKEWLEKKYYSVLSKAVKVVLGNDATFEITYEAFEPHSSYSEPLVKKRAVLLTPLNPDYTFENFVVGPGNSFAYHAALEVAKHPGRYNPLFIYGGVGLGKTHLLQSIGNYVVQNEPDLRVMYITSEKFLNDLVDSMKEGKLNEFREKYRKKVDILLIDDVQFLIGKTGVQTELFHTFNELHDSGKQIVICSDREPQKLSEFQDRLVSRFQMGLVAKLEPPDEETRKSIARKMLEIEHGELPEEVLNFVAENVDDNLRRLRGAIIKLLVYKETTGKEVDLKEAILLLKDFIKPNRVKAMDPIDELIEIVAKVTGVPREEILSNSRNVKALTARRIGMYVAKNYLKSSLRTIAEKFNRSHPVVVDSVKKVKDSLLKGNKQLKALIDEVIGEISRRALSGLEHHHHHH,soluble
13,MKEYKRPDMYDKLLPMERIHIEVFEPFNGEAIEGKYSYVLLCRDYRSSFMWLLPLKSTKFKHLIPVVSSLFLTFARVPIFVTSSTLDKDDLYDICEEIASKYGLRIGLGLKSSARFHTGGILCIQYALNSYKKECLADWGKCLRYGPYRFNRRRNKRTKRKPVQVLLSEVPGHNAKFETKRERVIENTYSRNMFKMAGGKGLIYLEDVNTFALANEADNSCNNNGILHNNNIGNDNFEEEVQKQFDLTEKNYIDEYDDLAHDSSEGEFEPNTLTPEEKPPHNVDEDRIESTGVAAPMQGTEEPEKGDQKESDGASQVDQSVEITRPETSYYQTLESPSTKRQKLDQQGNGDQTRDFGTSMEL,not soluble
14,MKFLKNVLEEGSKLEEFNELELSPEDKELLEYLQQTKAKITVVGCGGAGNNTITRLKMEGIEGAKTVAINTDAQQLIRTKADKKILIGKKLTRGLGAGGNPKIGEEAAKESAEEIKAAIQDSDMVFITCGLGGGTGTGSAPVVAEISKKIGALTVAVVTLPFVMEGKVRMKNAMEGLERLKQHTDTLVVIPNEKLFEIVPNMPLKLAFKVADEVLINAVKGLVELITKDGLINVDFADVKAVMNNGGLAMIGIGESDSEKRAKEAVSMALNSPLLDVDIDGATGALIHVMGPEDLTLEEAREVVATVSSRLDPNATIIWGATIDENLENTVRVLLVITGVQSRIEFTDTGLKRKKLELTGIPKIGSHHHHHH,soluble
15,MKFNIRGENIEVTPALKEYVEKKLSKLERYFDTFPEIKVNLKVYSDKQRVEVTIPFTDLLLRAEETNSDMYAAIDLVVDKLERQIRKHKTKVNRKLREKGSMKTNFILPEAVAVLDEVEEDELELVRTKRFDLKPMDVEEAILQMDMLGHNFFVFTNADTNETNVVYGRKDGKYGLIETKLEHHHHHH,not soluble
16,MKFNSMFSPIDIGPMKVPNRFVVSPMCNNYANTDGTLSDTSLAYYKERALGGFGLITFEATVVDVRAKGGANKACLYSDHQIASFKRVIDVCHDAGAKISVQLQHAGPEGNSKVSGYPLRAASAIASAAGRNTPEAISREELYELIELYGEAALRAKKAGADAVEVHCAHGYLVSSFLSARTNKRVDEFGGCFENRMRLPRLIIESIRKRVGHSIAILCRINSTDGVDGGLSVQDSATVAAYLEDCGLDGLHVSRSVHIRDEYMWAPTVLHAGFSSDLVTQIKRAVSIPVITVGRFTEPHYAELMVREGRADLVAFGRQSLADPETPNKAAAGKLDELLPCIACLQGCVANMYAGKPITCLVNPLLGRESEAYLPKTPSKKVVVVGGGVGGLYAGWMAGSRGHDVTVYEASDMIGGQMRLAAYPPGKGDLTNMVRSYIKKCEQFDVEIKTNTPVTLELIQEVAPDAVIIATGATPLVLPIPGIEDAGLIHAVDLLDGKEKCGQKVLVVGGGMVGSETAAFLGEAGHDVTVVELRDEVGADVISEHRKFLMHDFDEYKIKSVTNAKVTSFFEDGVTYSLADNKEQRIDGFDSVVLAMGSRAYNPLEEAIKAIVPETYVIGDAVRARRALDATKEALDAVLQL,not soluble
17,MKFPGKRKSKHYFPVNARDPLLQQFQPENETSAAWVVGIDQTLVDIEAKVDDEFIERYGLSAGHSLVIEDDVAEALYQELKQKNLITHQFAGGTIGNTMHNYSVLADDRSVLLGVMCSNIEIGSYAYRYLCNTSSRTDLNYLQGVDGPIGRCFTLIGESGERTFAISPGHMNQLRAESIPEDVIAGASALVLTSYLVRCKPGEPMPEATMKAIEYAKKYNVPVVLTLGTKFVIAENPQWWQQFLKDHVSILAMNEDEAEALTGESDPLLASDKALDWVDLVLCTAGPIGLYMAGFTEDEAKRKTQHPLLPGAIAEFNQYEFSRAMRHKDCQNPLRVYSHIAPYMGGPEKIMNTNGAGDGALAALLHDITANSYHRSNVPNSSKHKFTWLTYSSLAQVCKYANRVSYQVLNQHSPRLTRGLPEREDSLEESYWDR,not soluble
18,MKFPGPLENQRLSFLLEKAITREAQMWKVNVRKMPSNQNVSPSQRDEVIQWLAKLKYQFNLYPETFALASSLLDRFLATVKAHPKYLSCIAISCFFLAAKTVEEDERIPVLKVLARDSFCGCSSSEILRMERIILDKLNWDLHTATPLDFLHIFHAIAVSTRPQLLFSLPKLSPSQHLAVLTKQLLHCMACNQLLQFRGSMLALAMVSLEMEKLIPDWLSLTIELLQKAQMDSSQLIHCRELVAHHLSTLQSSLPLNSVYVYRPLKHTLVTCDKGVFRLHPSSVPGPDFSKDNSKPEVPVRGTAAFYHHLPAASGCKQTSTKRKVEEMEVDDFYDGIKRLYNEDNVSENVGSVCGTDLSRQEGHASPCPPLQPVSVM,not soluble
